B1: Frizzled3 (Fzd3): N42Q (protein)
parent chain: MAVSWIVFDLWLLTVFLGQIGGHSLFSCEPITLRMCQDLPYNTTFMPNLLNHYDQQTAALAMEPFHPMVNLDCSRDFRPFLCALYAPICMEYGRVTLPCRRLCQRAYSECSKLMEMFGVPWPEDMECSRFPDCDEPYPRLVDLNLVGDPTEGAPVAVQRDYGFWCPRELKIDPDLGYSFLHVRDCSPPCPNMYFRREELSFARYFIGLISIICLSATLFTFLTFLIDVTRFRYPERPIIFYAVCYMMVSLIFFIGFLLEDRVACNASSPAQYKASTVTQGSHNKACTMLFMVLYFFTMAGSVWWVILTITWFLAAVPKWGSEAIEKKALLFHASAWGIPGTLTIILLAMNKIEGDNISGVCFVGLYDVDALRYFVLAPLCLYVVVGVSLLLAGIISLNRVRIEIPLEKENQDKLVKFMIRIGVFSILYLVPLLVVIGCYFYEQAYRGIWETTWIQERCREYHIPCPYQVTQMSRPDLILFLMKYLMALIVGIPSIFWVGSKKTCFEWASFFHGRRKKEIVNESRQVLQEPDFAQSLLRDPNTPIIRKSRGTSTQGTSTHASSTQLAMVDDQRSKAGSVHSKVSSYHGSLHRSRDGRYTPCSYRGMEERLPHGSMSRLTDHSRHSSSHRLNEQSRHSSIRDLSNNPMTHITHGTSMNRVIEEDGTSA
B2: Frizzled3 (Fzd3): N356Q (protein)
parent chain: MAVSWIVFDLWLLTVFLGQIGGHSLFSCEPITLRMCQDLPYNTTFMPNLLNHYDQQTAALAMEPFHPMVNLDCSRDFRPFLCALYAPICMEYGRVTLPCRRLCQRAYSECSKLMEMFGVPWPEDMECSRFPDCDEPYPRLVDLNLVGDPTEGAPVAVQRDYGFWCPRELKIDPDLGYSFLHVRDCSPPCPNMYFRREELSFARYFIGLISIICLSATLFTFLTFLIDVTRFRYPERPIIFYAVCYMMVSLIFFIGFLLEDRVACNASSPAQYKASTVTQGSHNKACTMLFMVLYFFTMAGSVWWVILTITWFLAAVPKWGSEAIEKKALLFHASAWGIPGTLTIILLAMNKIEGDNISGVCFVGLYDVDALRYFVLAPLCLYVVVGVSLLLAGIISLNRVRIEIPLEKENQDKLVKFMIRIGVFSILYLVPLLVVIGCYFYEQAYRGIWETTWIQERCREYHIPCPYQVTQMSRPDLILFLMKYLMALIVGIPSIFWVGSKKTCFEWASFFHGRRKKEIVNESRQVLQEPDFAQSLLRDPNTPIIRKSRGTSTQGTSTHASSTQLAMVDDQRSKAGSVHSKVSSYHGSLHRSRDGRYTPCSYRGMEERLPHGSMSRLTDHSRHSSSHRLNEQSRHSSIRDLSNNPMTHITHGTSMNRVIEEDGTSA
B3: Frizzled3 (Fzd3): 2NQ (protein)
parent chain: MAVSWIVFDLWLLTVFLGQIGGHSLFSCEPITLRMCQDLPYNTTFMPNLLNHYDQQTAALAMEPFHPMVNLDCSRDFRPFLCALYAPICMEYGRVTLPCRRLCQRAYSECSKLMEMFGVPWPEDMECSRFPDCDEPYPRLVDLNLVGDPTEGAPVAVQRDYGFWCPRELKIDPDLGYSFLHVRDCSPPCPNMYFRREELSFARYFIGLISIICLSATLFTFLTFLIDVTRFRYPERPIIFYAVCYMMVSLIFFIGFLLEDRVACNASSPAQYKASTVTQGSHNKACTMLFMVLYFFTMAGSVWWVILTITWFLAAVPKWGSEAIEKKALLFHASAWGIPGTLTIILLAMNKIEGDNISGVCFVGLYDVDALRYFVLAPLCLYVVVGVSLLLAGIISLNRVRIEIPLEKENQDKLVKFMIRIGVFSILYLVPLLVVIGCYFYEQAYRGIWETTWIQERCREYHIPCPYQVTQMSRPDLILFLMKYLMALIVGIPSIFWVGSKKTCFEWASFFHGRRKKEIVNESRQVLQEPDFAQSLLRDPNTPIIRKSRGTSTQGTSTHASSTQLAMVDDQRSKAGSVHSKVSSYHGSLHRSRDGRYTPCSYRGMEERLPHGSMSRLTDHSRHSSSHRLNEQSRHSSIRDLSNNPMTHITHGTSMNRVIEEDGTSA

Experiment: surface biotinylation, NeutrAvidin pull-down, immunoblot
Settings: glycan lost; control: wild type

Protein	localisation_or_trafficking
B1	decreases
B2	abolishes
B3	changes

— publication PMC5779225
